Columns and labels:
[1] = target: BcMCM 501–1028 (helicase domain) (Bacillus cereus (integrated prophage)); test: negative-stain electron microscopy
[2] = target: BcMCM presensor I β-hairpin mutant (R737A) (Bacillus cereus (integrated prophage)); test: SEC
[3] = target: BcMCM Walker B mutant (D711A) (Bacillus cereus (integrated prophage)); test: SEC
BcMCM wild type [4] = target: T1, BcMCM wild type (Bacillus cereus (prophage), UniProt Q81EV1 1-1028); test: pull-down
T1 sequence: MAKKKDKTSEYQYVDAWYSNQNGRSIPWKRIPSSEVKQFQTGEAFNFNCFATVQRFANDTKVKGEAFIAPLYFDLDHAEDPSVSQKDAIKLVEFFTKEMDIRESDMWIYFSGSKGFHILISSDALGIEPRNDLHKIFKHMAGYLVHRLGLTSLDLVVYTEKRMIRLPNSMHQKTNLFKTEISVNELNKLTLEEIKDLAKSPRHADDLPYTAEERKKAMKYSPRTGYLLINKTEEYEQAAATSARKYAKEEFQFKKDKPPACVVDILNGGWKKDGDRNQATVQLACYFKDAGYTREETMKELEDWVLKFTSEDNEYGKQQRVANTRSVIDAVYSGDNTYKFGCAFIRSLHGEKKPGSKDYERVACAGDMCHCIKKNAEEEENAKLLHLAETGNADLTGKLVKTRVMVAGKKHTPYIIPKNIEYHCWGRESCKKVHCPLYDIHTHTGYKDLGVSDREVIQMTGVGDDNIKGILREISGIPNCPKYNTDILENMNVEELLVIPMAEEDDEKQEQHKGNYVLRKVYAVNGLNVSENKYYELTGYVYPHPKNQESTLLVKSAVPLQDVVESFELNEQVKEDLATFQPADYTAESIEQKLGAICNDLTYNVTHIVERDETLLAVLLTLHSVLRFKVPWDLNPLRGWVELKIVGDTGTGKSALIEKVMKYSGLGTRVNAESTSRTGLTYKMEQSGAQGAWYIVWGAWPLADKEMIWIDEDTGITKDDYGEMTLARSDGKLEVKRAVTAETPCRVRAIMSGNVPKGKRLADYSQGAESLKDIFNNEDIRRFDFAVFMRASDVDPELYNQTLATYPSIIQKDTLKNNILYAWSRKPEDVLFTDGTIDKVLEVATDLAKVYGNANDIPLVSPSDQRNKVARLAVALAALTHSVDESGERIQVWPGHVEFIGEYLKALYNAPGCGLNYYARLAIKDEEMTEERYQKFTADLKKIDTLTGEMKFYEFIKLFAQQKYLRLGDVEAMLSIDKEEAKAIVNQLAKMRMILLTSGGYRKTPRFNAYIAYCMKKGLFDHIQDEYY

BcMCM wild type [5] = target: T1, BcMCM wild type; test: EMSA

BcMCM 501–1028 (helicase domain) (domain or fragment)
stoichiometry N [1]: 6

BcMCM presensor I β-hairpin mutant (R737A) (enzyme)
stoichiometry N [2]: 6

BcMCM Walker B mutant (D711A) (enzyme)
stoichiometry N [3]: 6

B1: biotin-EcoRI-(dT)50 tailed duplex (mixed)
DNA 1: TCCCCCGAATTCCCCCCTTTTTTTTTTTTTTTTTTTTTTTTTTTTTTTTTTTTTTTTTTTTTTTTTT
DNA 2: GGGGGGAATTCGGGGG
modifications: 5' biotin on strand 1
binding result (BcMCM wild type [4]): binds

B2: bubble (dsDNA)
DNA 1: ACTGGCCGTCGTTTTACAACGTCGTGACTGGGAAAACCCTGGCGTTACCCAACTTAATCG
DNA 2: CGATTAAGTTGGGTAACGGGTCCCAAAAGGGTCAGTGCTGCATGTAAAACGACGGCCAGT
binding result (BcMCM wild type [5]): binds

B3: template-primer, 3'-end oligo (mixed)
DNA 1: ACTGGCCGTCGTTTTACAACGTCGTGACTGGGAAAACCCTGGCGTTACCCAACTTAATCG
DNA 2: CGATTAAGTTGGGTAACGCC
binding result (BcMCM wild type [5]): binds

B4: template-primer, 5'-end oligo (mixed)
DNA 1: ACTGGCCGTCGTTTTACAACGTCGTGACTGGGAAAACCCTGGCGTTACCCAACTTAATCG
DNA 2: GTTGTAAAACGACGGCCAGT
binding result (BcMCM wild type [5]): binds
